This is an account of results in article PMC5760045, “The centrosomin CM2 domain is a multi-functional binding domain with distinct cell cycle roles” (PLoS ONE, 2018).

Data set [1] addresses centrosomin CM2 aa1090-1148 (monomeric CM2) (Drosophila melanogaster) (UniProt P54623). Nature of the data set: NMR titration; 2D [15N,1H]-HSQC of 100μM 15N labeled monomeric CM2 with 18μM CaM; 2mM EGTA added in place of 2mM CaCl2; 300K; 20mM PIPES pH 6.8, 140mM NaCl; apparent affinity.
In data set [2] the target is CM2 Δ1130–1148 (Drosophila melanogaster) (UniProt P54623). Nature of the data set: SEC-MALS; KW-802.5 size exclusion column with inline MALS and refractive index detectors; 50mM HEPES pH 7.0, 200mM NaCl, 1mM DTT; dimer constructs also at submicromolar concentrations (1μM and 9μM for aa1074-1148). A general note: In gel filtration, larger molecules generally elute earlier.

For data set [3], the target named is T1, GB1-CNNLZ (CNN aa490-567 fused to the GB1 solubility tag) (Drosophila melanogaster, UniProt P54623-2 490-567).
T1 construct: centrosomin (CNN), Drosophila melanogaster, residues 490-567 with the leucine zipper, the same fragment as in the crystal structure 5MWE; The introduction gives aa490-544 for CNNLZ of Feng et al; the results give aa490-567 for the fragment used here; also called GB1-CnnMD; source: E. coli, purified (NiNTA, size exclusion)
T1 sequence (looked up): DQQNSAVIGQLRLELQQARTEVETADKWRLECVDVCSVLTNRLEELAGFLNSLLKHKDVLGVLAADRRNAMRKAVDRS
Nature of the data set: NMR titration; 2D [15N,1H]-HSQC of 100μM 15N labeled CM2 with unlabeled partner added; 300K; 20mM PIPES pH 6.8, 140mM NaCl, 0.01% NaN3, 5% D2O, 2mM CaCl2; 800 MHz. The following applies: both partners purified.

Data set [4] concerns the molecule itself. Nature of the data set: SEC-MALS; KW-802.5 size exclusion column with inline MALS and refractive index detectors; 50mM HEPES pH 7.0, 200mM NaCl, 1mM DTT; dimer constructs also at submicromolar concentrations (1μM and 9μM for aa1074-1148).

As to “calmodulin (from UniProt P62152 1-149) (natural protein)”, in data set [1], the reduction of the apparent affinity without calcium (2mM EGTA) against 2mM CaCl2 fell in the range of 50 to 70%.

The molecule “CM2 Δ1130–1148 (from UniProt P54623-2 1-1129) (domain or fragment)” came in with a stoichiometry N in data set [2] of 2.

B1: centrosomin CM2 aa1090-1148 (monomeric CM2) (domain or fragment, Drosophila melanogaster, UniProt P54623-2 1090-1148, looked up)
chain: ENAELRRKLIRTKRAFEDTYEKLRMANKAKAQVEKDIKNQILKTHNVLRNVRSNMENEL
notes: centrosomin (CNN), Drosophila melanogaster, residues 1090-1148 (start of the predicted coiled coil to the C-terminus), from cDNA LD19135; 15N-labelled (or 13C/15N) in the NMR experiments; also called CM2 monomer; truncated CM2; source: E. coli, purified (NiNTA, cation exchange; non-labeled protein also size exclusion)
Consider B1, for which the binding result in data set [3] is “binds”.

B2: centrosomin CM2 aa1074-1148 (minimal dimeric CM2) (domain or fragment, Drosophila melanogaster, UniProt P54623-2 1074-1148, looked up)
chain: VATGAATVHDCAKVDLENAELRRKLIRTKRAFEDTYEKLRMANKAKAQVEKDIKNQILKTHNVLRNVRSNMENEL
notes: centrosomin (CNN), Drosophila melanogaster, residues 1074-1148, from cDNA LD19135; 15N-labelled in the NMR experiments; also called CM2 dimer; minimal dimer construct; source: E. coli, purified (NiNTA, cation exchange; non-labeled protein also size exclusion)
For B2, in data set [4], the “stoichiometry N” value is 2.

B3: centrosomin CM2 aa1064-1148 (longer dimeric CM2) (domain or fragment, Drosophila melanogaster, UniProt P54623-2 1064-1148, looked up)
chain: ESTSPDSKSNVATGAATVHDCAKVDLENAELRRKLIRTKRAFEDTYEKLRMANKAKAQVEKDIKNQILKTHNVLRNVRSNMENEL
notes: centrosomin (CNN), Drosophila melanogaster, residues 1064-1148, from cDNA LD19135; source: E. coli, purified (NiNTA, cation exchange, size exclusion)
Consider B3, for which the “stoichiometry N” value in data set [4] is 2.

By stoichiometry N is commonly meant the number of molecules, sites or subunits per partner or assembly.
